The results in this text go back to US20220050116A1.

The experiment addresses synthetic collagen peptides. Kind of experiment: ELISA-like assay: biotin-labeled peptides titrated on plate-immobilized D-CHP, 4-parameter Hill fit.

As to “D-CHP, dimeric collagen hybridizing peptide [Ac-(GPO)6-G3]2-K-GK (designed binder)”, the Kd was in the range of 10 to 270 nM.
